Source: paper PMC8519878 (Cell Reports, 2021)

Molecular target: SARS-CoV-2 S2P spike (SARS-CoV-2, ancestral spike (P0DTC2 …, stabilised))
Assay: cryo-EM structure

B1: antigen-binding fragment (Fab) of antibody 5-7, expressed as Fab (Fab, V domains shown)
VH: QVQLVQSGAEVKKPGASVKVSCKASGYTFTSYYMHWVRQAPGQGLEWMGVINPSGGSTSYAEKFRGRVTMTRDTSTSTVYMELSSLRSEDTAVYYCARDREPHSDSSGYWDSLKYYYYYALDVWGQGTTVTVSS
VL: AIQLTQSPSSLSASVGDRVTITCRASQGISSYLAWYQQKPGKAPELLIYAASTLQSGVPSRFSGSGSGTDFTLTISSLQPEDFATYYCQQLNTYPFTFGPGTKVDIK
stoichiometry N: 3 Fabs per trimer
